B1: SEQ ID NO 71 (VHH)
VHH: EVQLVESGGGLVQPGGSLRLSCAASRSIGRLDRMGWYRHRPGEPRELVATITGGSSINYGDSVKGRFTISIDNSKNTVYLQMNSLRPEDTAVYYCNFNKYVTSRDTWGQGTLVTVSG
notes: S113G
B2: SEQ ID NO 74 (VHH)
VHH: EVQLVESGGGLVQPGGSLRLSCAASRSIGRLDRMGWYRHRPGEPRELVATITGGSSINYGDSVKGRFTISIDNSKNTVYLQMNSLRPEDTAVYYCNFNKYVTSRDTWGQGTLVTVSS
notes: C-terminal: G
B3: SEQ ID NO 85 (VHH)
VHH: EVQLVESGGGSVQPGGSLRLSCAASRSIGRLDRMGWYRHRPGEPRELVATITGGSSINYGDSVKGRFTISIDNSKNTVYLQMNSLRPEDTAVYYCNFNKYVTSRDTWGQGTLVQVGG
notes: L11S, T110Q, S112G, S113G
B4: SEQ ID NO 86 (VHH)
VHH: EVQLVESGGGSVQPGGSLRLSCAASRSIGRLDRMGWYRHRPGEPRELVATITGGSSINYGDSVKGRFTISIDNSKNTVYLQMNSLRPEDTAVYYCNFNKYVTSRDTWGQGTLVQVSS
notes: L11S, T110Q
B5: SEQ ID NO 65 (VHH)
VHH: EVQLVESGGGLVQAGGSLRLSCAASRSIGRLDRMGWYRHRPGEPRELVATITGGSSINYGDSVKGRFTISIDNSKNTVYLQMNSLRPEDTAVYYCNFNKYVTSRDTWGQGTLVTVSS
notes: P14A
B6: SEQ ID NO 66 (VHH)
VHH: EVQLVESGGGSVQPGGSLRLSCAASRSIGRLDRMGWYRHRPGEPRELVATITGGSSINYGDSVKGRFTISIDNSKNTVYLQMNSLRPEDTAVYYCNFNKYVTSRDTWGQGTLVTVSS
notes: L11S
B7: SEQ ID NO 83 (VHH)
VHH: EVQLVESGGGLVQPGGSLRLSCAASRSIGRLDRMGWYRHRPGEPRELVATITGGSSINYGDSVKGRFTISIDNSKNTVYLQMNSLRPEDAAVYYCNFNKYVTSRDTWGQGTLVTVSS
notes: T87A
B8: SEQ ID NO 78 (VHH)
VHH: EVQLVESGGGLVRPGGSLRLSCAASRSIGRLDRMGWYRHRPGEPRELVATITGGSSINYGDSVKGRFTISIDNSKNTVYLQMNSLRPEDTAVYYCNFNKYVTSRDTWGQGTLVTVSS
notes: Q13R
B9: SEQ ID NO 81 (VHH)
VHH: EVQLVESGGGVVQPGGSLRLSCAASRSIGRLDRMGWYRHRPGEPRELVATITGGSSINYGDSVKGRFTISIDNSKNTVYLQMNSLRPEDTAVYYCNFNKYVTSRDTWGQGTLVTVSS
notes: L11V
B10: SEQ ID NO 69 (VHH)
VHH: EVQLVESGGGLVQPGGSLRLSCAASRSIGRLDRMGWYRHRPGEPRELVATITGGSSINYGDSVKGRFTISIDNSKNTVYLQMNSLRPEDTAVYYCNFNKYVTSRDTWGQGTQVTVSS
notes: L108Q
B11: SEQ ID NO 72 (VHH)
VHH: EVQLVESGGGLVQPGGSLRLSCAASRSIGRLDRMGWYRHRPGEPRELVATITGGSSINYGDSVKGRFTISIDNSKNTVYLQMNSLRPEDTAVYYCNFNKYVTSRDTWGQGTLVTVGG
notes: S112G, S113G
B12: SEQ ID NO 84 (VHH)
VHH: EVQLVESGGGLVQPGGSLRLSCAASRSIGRLDRMGWYRHRPGEPRELVATITGGSSINYGDSVKGRFTISIDNSKNTVYLQMNSLRPEDTAVYYCNFNKYVTSRDTWGQGTLVTVGS
notes: S112G
B13: SEQ ID NO 82 (VHH)
VHH: EVQLVESGGGLVQPGGSLRLSCAASRSIGRLDRMGWYRHRPGEPRELVATITGGSSINYGDSVKGRFTISIDNSKNTVYLQMNSLRAEDTAVYYCNFNKYVTSRDTWGQGTLVTVSS
notes: P84A
B14: SEQ ID NO 70 (VHH)
VHH: EVQLVESGGGLVQPGGSLRLSCAASRSIGRLDRMGWYRHRPGEPRELVATITGGSSINYGDSVKGRFTISIDNSKNTVYLQMNSLRPEDTAVYYCNFNKYVTSRDTWGQGTLVQVSS
notes: T110Q
B15: SEQ ID NO 67 (VHH)
VHH: EVQLVESGGGLVQPGGSLRLSCAASRSIGRLDRMGWYRHRPGEPRELVATITGGSSINYGDSVKGRFTISIDNSKNTVYLQMNSLKPEDTAVYYCNFNKYVTSRDTWGQGTLVTVSS
notes: R83K
B16: SEQ ID NO 89 (VHH)
VHH: EVQLVESGGGSVQAGGSLRLSCAASRSIGRLDRMGWYRHRPGEPRELVATITGGSSINYGDSVKGRFTISIDNSKNTVYLQMNSLRPEDTAVYYCNFNKYVTSRDTWGQGTLVQVGG
notes: L11S, P14A, T110Q, S112G, S113G
B17: SEQ ID NO 68 (VHH)
VHH: EVQLVESGGGLVQAGGSLRLSCAASRSIGRLDRMGWYRHRPGEPRELVATITGGSSINYGDSVKGRFTISIDNSKNTVYLQMNSLRPEDTAVYYCNFNKYVTSRDTWGQGTQVTVSS
notes: P14A, L108Q
B18: SEQ ID NO 87 (VHH)
VHH: EVQLVESGGGSVQPGGSLRLSCAASRSIGRLDRMGWYRHRPGEPRELVATITGGSSINYGDSVKGRFTISIDNSKNTVYLQMNSLRPEDTAVYYCNFNKYVTSRDTWGQGTLVTVGG
notes: L11S, S112G, S113G
B19: SEQ ID NO 73 (VHH)
VHH: EVQLVESGGGLVQPGGSLRLSCAASRSIGRLDRMGWYRHRPGEPRELVATITGGSSINYGDSVKGRFTISIDNSKNTVYLQMNSLRPEDTAVYYCNFNKYVTSRDTWGQGTLVTVGG
notes: C-terminal: G; S112G, S113G
B20: SEQ ID NO 80 (VHH)
VHH: EVQLVESGGGLVQPGGSLRLSCAASRSIGRLDRMGWYRHRPGEPRELVATITGGSSINYGDSVKGRFTISIDNSKNTVYLQMNSLRPEDTAVYYCNFNKYVTSRDTWGQGTLVQVGG
notes: T110Q, S112G, S113G

Tests used:
[1] = target: T1, monoclonal antibody 21-4-3; assay: Biacore, captured 21-4-3
T1 construct: mouse IgG1 heavy chain, kappa light chain; also called mAb21-4-3; produced by hybridoma ABH0015 (LMBP-9680-CB)
Experimental: Binding measurements were performed using a Biacore T100 using a CM5 T120416 sensor chip, with running buffer HBS-EP+, 25° C. […] The anti-mouse IgG used was a polyclonal rabbit anti-mouse IgG antibodies reacting with all IgG subclasses, IgA and IgM (GE Healthcare; Cat#BR-1008-38; Lot#10056316). Immobilisation of the anti-mouse IgG was performed using manual amine coupling using a 7 minute injection of EDC/NHS for activation and a 7 minute injection of 1M ethanolamine HCl pH 8.5 for deactivation (Biacore, amine coupling kit).

[2] = target: T2, purified interference factor(s) from serum of Donor C; assay: Biacore, immobilized interference factor
T2 construct: text names Donors 8, 19 and 30

[3] = target: T3, purified interference factor(s) from serum of Donor A; assay: Biacore, immobilized interference factor
T3 construct: text names Donors 8, 19 and 30

[4] = target: T4, purified interference factor(s) from serum of Donor B; assay: Biacore, immobilized interference factor
T4 construct: text names Donors 8, 19 and 30

Row | Binder | binding vs Reference Sequence (=100%) [1] [%] | binding vs Reference Sequence (=100%) [2] [%] | binding vs Reference Sequence (=100%) [3] [%] | binding vs Reference Sequence (=100%) [4] [%]
1 | B1 | 44 | 87 | 88 | 105
2 | B2 | 1 | 33 | 4 | 41
3 | B3 | 32 | 42 | 46 | 5
4 | B4 | 64 | 86 | 76 | 6
5 | B5 | 23 | 64 | 73 | 121
6 | B6 | 48 | 84 | 81 | 29
7 | B7 | 79 | 61 | 56 | 73
8 | B8 | 1 | 100 | 96 | 96
9 | B9 | 75 | 89 | 94 | 50
10 | B10 | 106 | 84 | 80 | 120
11 | B11 | 45 | 56 | 70 | 47
12 | B12 | 91 | 83 | 84 | 50
13 | B13 | 56 | 100 | 96 | 80
14 | B14 | 106 | 98 | 90 | 105
15 | B15 | 101 | 96 | 102 | 117
16 | B16 | 2 | 17 | 14 | 5
17 | B17 | 26 | 49 | 38 | 115
18 | B18 | 41 | 39 | 51 | 5
19 | B19 | 1 | 9 | 6 | 8
20 | B20 | 51 | 58 | 65 | 5

— US20140205597A1 (published 2014)
